Assay results from patent US20240116985A1 (published 2024).
Starred links: 1 amine or outer side, 2 acyl side, 3 side chain; linkers in the order of their positions; H or OH if unused. Positions of bridges follow the written chain, without caps; N, C: chain ends. Non-standard residues stand in square brackets, D forms with d. Primed or numbered codes have the meaning given here. RdN(3) = (R)-4-(((allyloxy)carbonyl)(methyl)amino)-2-amino-2-methylbutanoic acid, stapling residue, C=CCOC(=O)N(C)CC[C@@](C)(N[*:1])C(=O)[*:2]; RdN″ = (R)-4-(((allyloxy)carbonyl)(methyl)amino)-2-amino-2-methylbutanoic acid (stapling residue), C=CCOC(=O)N(C)CC[C@@](C)(N[*:1])C(=O)[*:2]; RgN = (R)-3-(((allyloxy)carbonyl)(methyl)amino)-2-amino-2-methylpropanoic acid (stapling residue), C=CCOC(=O)N(C)C[C@@](C)(N[*:1])C(=O)[*:2]; Az″ = 1-((allyloxy)carbonyl)-3-aminoazetidine-3-carboxylic acid (staple end via allyl carbamate), C=CCOC(=O)N1CC(N[*:1])(C(=O)[*:2])C1; PyrS(3) = (S)-1-((allyloxy)carbonyl)-3-aminopyrrolidine-3-carboxylic acid, stapling residue, C=CCOC(=O)N1CC[C@@](N[*:1])(C(=O)[*:2])C1; SeN = (S)-5-(((allyloxy)carbonyl)(methyl)amino)-2-amino-2-methylpentanoic acid, C=CCOC(=O)N(C)CCC[C@](C)(N[*:1])C(=O)[*:2]; SdN = (S)-4-(((allyloxy)carbonyl)(methyl)amino)-2-amino-2-methylbutanoic acid, C=CCOC(=O)N(C)CC[C@](C)(N[*:1])C(=O)[*:2]; SgN = (S)-3-(((allyloxy)carbonyl)(methyl)amino)-2-amino-2-methylpropanoic acid, C=CCOC(=O)N(C)C[C@](C)(N[*:1])C(=O)[*:2]; Az = 1-((allyloxy)carbonyl)-3-aminoazetidine-3-carboxylic acid (stapling residue), C=CCOC(=O)N1CC(N[*:1])(C(=O)[*:2])C1; PyrS = (S)-1-((allyloxy)carbonyl)-3-aminopyrrolidine-3-carboxylic acid, C=CCOC(=O)N1CC[C@@](N[*:1])(C(=O)[*:2])C1; Az(3) = 1-((allyloxy)carbonyl)-3-aminoazetidine-3-carboxylic acid, C=CCOC(=O)N1CC(N[*:1])(C(=O)[*:2])C1; R7 = (R)-2-amino-2-methylnon-8-enoic acid, C=CCCCCC[C@@](C)(N[*:1])C(=O)[*:2]; R4 = (R)-2-amino-2-methylhex-5-enoic acid, C=CCC[C@@](C)(N[*:1])C(=O)[*:2]; S7 = C[C@@](CCCCCC=[*:3])(N[*:1])C(=O)[*:2]; R8 = C=CCCCCCC[C@@](C)(N)C(=O)O; Cha = N[C@@H](CC1CCCCC1)C(=O)O; S8 = C=CCCCCCC[C@](C)(N)C(=O)O; R5 = C=CCCC[C@@](C)(N)C(=O)O; hLeu = CC(C)CC[C@H](N)C(=O)O; S5 = C=CCCC[C@](C)(N)C(=O)O; Nle = CCCC[C@H](N)C(=O)O

T1: full-length beta-Catenin (Uniprot ID P35222) (Homo sapiens (Human), UniProt P35222 2-781)
T1 construct: The assay text says 'full-length'; also called B-Catenin; bCat
T1 sequence: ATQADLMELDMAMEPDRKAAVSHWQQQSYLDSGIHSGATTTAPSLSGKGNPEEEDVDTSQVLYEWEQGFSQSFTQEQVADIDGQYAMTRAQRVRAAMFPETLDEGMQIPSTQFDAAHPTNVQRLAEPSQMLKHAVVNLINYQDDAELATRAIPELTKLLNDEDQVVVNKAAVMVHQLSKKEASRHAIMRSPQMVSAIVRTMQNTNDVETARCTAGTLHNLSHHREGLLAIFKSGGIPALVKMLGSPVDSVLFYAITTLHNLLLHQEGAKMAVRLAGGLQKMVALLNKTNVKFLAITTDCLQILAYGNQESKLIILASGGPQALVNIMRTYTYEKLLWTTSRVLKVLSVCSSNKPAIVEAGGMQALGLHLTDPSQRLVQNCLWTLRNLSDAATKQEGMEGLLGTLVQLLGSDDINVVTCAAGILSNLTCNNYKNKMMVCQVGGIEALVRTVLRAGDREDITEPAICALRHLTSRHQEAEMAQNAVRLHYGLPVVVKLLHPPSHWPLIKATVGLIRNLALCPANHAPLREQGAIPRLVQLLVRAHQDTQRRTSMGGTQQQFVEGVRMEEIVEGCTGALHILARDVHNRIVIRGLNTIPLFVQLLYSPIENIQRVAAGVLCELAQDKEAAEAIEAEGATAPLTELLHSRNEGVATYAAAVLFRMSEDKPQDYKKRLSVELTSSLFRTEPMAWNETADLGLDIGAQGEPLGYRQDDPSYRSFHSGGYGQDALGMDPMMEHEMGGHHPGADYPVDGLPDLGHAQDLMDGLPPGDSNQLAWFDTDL

T2: full-length beta-Catenin (Uniprot ID P35222) (Homo sapiens (Human), UniProt P35222 2-781)
T2 construct: Used full-length in both the FP and the AlphaScreen assay; also called B-Catenin; bCat
T2 sequence: T1 sequence

B1: I-37 (peptide)
peptide: Ac-FDA[R5]DDAAFV[SdN]FWQ-NH2
modifications: staple 4-11
notes: Stapled peptide composition
B2: I-35 (peptide)
peptide: Ac-FDA[Az″]DDAAFV[S8]FWQ-NH2
modifications: staple 4-11
notes: Stapled peptide composition
B3: I-42 (peptide)
peptide: FDAXDDAAFVXFWQ
modifications: not fully specified; Ac-Phe-Asp-Ala-RdN-Asp-Asp-Ala-Ala-Phe-Val-S4-Phe-Trp-Gln-NH2 as printed: N-terminal acetyl, C-terminal amide, RdN at 4 stapled to S4 at 11
notes: Stapled peptide composition
B4: I-45 (peptide)
peptide: Ac-FDA[RgN]DDAAFV[S7]FWQ-NH2
modifications: staple 4-11
notes: Stapled peptide composition
B5: I-33 (peptide)
peptide: Ac-FDA[Az(3)]DDAAFV[S7]FWQ-NH2
modifications: staple 4-11
notes: Stapled peptide composition
B6: I-43 (peptide)
peptide: FDAXDDAAFVXFWQ
modifications: not fully specified; Ac-Phe-Asp-Ala-RgN-Asp-Asp-Ala-Ala-Phe-Val-S8-Phe-Trp-Gln-NH2 as printed: N-terminal acetyl, C-terminal amide, RgN at 4 stapled to S8 at 11
notes: Stapled peptide composition
B7: I-36 (peptide)
peptide: Ac-FDA[R4]DDAAFV[SeN]FWQ-NH2
modifications: staple 4-11
notes: Stapled peptide composition
B8: I-38 (peptide)
peptide: Ac-FDA[R7]DDAAFV[Az(3)]FWQ-NH2
modifications: staple 4-11
notes: Stapled peptide composition
B9: I-44 (peptide)
peptide: Ac-FDA[RgN]DDAAFV[S8]FWQ-NH2
modifications: staple 4-11
notes: Stapled peptide composition
B10: I-41 (peptide)
peptide: FDAXDDAAFVXFWQ
modifications: not fully specified; Ac-Phe-Asp-Ala-RdN-Asp-Asp-Ala-Ala-Phe-Val-S4-Phe-Trp-Gln-NH2 as printed: N-terminal acetyl, C-terminal amide, RdN at 4 stapled to S4 at 11
notes: Stapled peptide composition
B11: I-34 (peptide)
peptide: Ac-FDA[R8]DDAAFV[SgN]FWQ-NH2
modifications: staple 4-11
notes: Stapled peptide composition
B12: I-40 (peptide)
peptide: Ac-FDA[R8]DDAAFV[Az]FWQ-NH2
modifications: staple 4-11; not fully specified; printed as Ac-Phe-Asp-Ala-R8-Asp-Asp-Ala-Ala-Phe-Val-Az-Phe-Trp-Gln-NH2
notes: Stapled peptide composition
B13: I-39 (peptide)
peptide: Ac-FDA[R8]DDAAFV[Az(3)]FWQ-NH2
modifications: staple 4-11; not fully specified; printed as Ac-Phe-Asp-Ala-R8-Asp-Asp-Ala-Ala-Phe-Val-Az-Phe-Trp-Gln-NH2
notes: Stapled peptide composition
B14: I-47 (peptide)
peptide: Ac-FD[R8]ADDAAF[S5]AFWQ-NH2
modifications: staple 3-10; also: staple isomer composition: earlier-eluting HPLC peak
notes: Stapled peptide; also called Ac-Phe-Asp-R8-Ala-Asp-Asp-Ala-Ala-Phe-S5-Ala-Phe-Trp-Gln-NH2
B15: I-51 (peptide)
peptide: Ac-FD[R8]ADDAAF[PyrS(3)]AFWQ-NH2
modifications: staple 3-10
notes: Stapled peptide; also called Ac-Phe-Asp-R8-Ala-Asp-Asp-Ala-Ala-Phe-PyrS-Ala-Phe-Trp-Gln-NH2
B16: I-61 (peptide)
peptide: Ac-FDA[R8]DDAAFV[PyrS][Cha]WQ-NH2
modifications: staple 4-11
notes: Stapled peptide; also called Ac-Phe-Asp-Ala-R8-Asp-Asp-Ala-Ala-Phe-Val-PyrS-Cha-Trp-Gln-NH2
B17: I-50 (peptide)
peptide: Ac-FD[RdN(3)]ADDAAF[S7]AFWQ-NH2
modifications: staple 3-10; also: later-eluting HPLC isomer, E/Z not assigned
notes: Stapled peptide; also called Ac-Phe-Asp-RdN-Ala-Asp-Asp-Ala-Ala-Phe-S7-Ala-Phe-Trp-Gln-NH2
B18: I-68 (peptide)
peptide: Ac-ADI[RdN″]D[Nle]AAFQ[S7]FWH-NH2
modifications: staple 4-11
notes: Stapled peptide; also called Ac-Ala-Asp-Ile-RdN-Asp-nLeu-Ala-Ala-Phe-Gln-S7-Phe-Trp-His-NH2
B19: I-70 (peptide)
peptide: Ac-ADI[RdN″]D[hLeu]AAFQ[S7]FWH-NH2
modifications: staple 4-11
notes: Stapled peptide; also called Ac-Ala-Asp-Ile-RdN-Asp-hLeu-Ala-Ala-Phe-Gln-S7-Phe-Trp-His-NH2

Target: T1, full-length beta-Catenin (Uniprot ID …)
Assay: AlphaScreen competition vs biotin-TCF4(10-53) on full-length beta-catenin
Method: (§1) Equal volume of the titrated peptide was added to the plate and incubated for 15 minutes at 20° C. Then 4 uL of donor and 4 uL acceptor beads at 10 ug/mL were added to the plate, for a 16 uL reaction pool and protected from light for 60 minutes at 20° C. prior to read. Reads were performed on a CLARIOstar plate reader (BMG Labtech) in duplicate, and data were fitted to a 1:1 binding model with hill slope using an in-house script. All provided concentrations are final concentrations.

Binder | EC50
B1 | ≥ 10 µM
B2 | 9.54 µM
B3 | 9.34 µM
B4 | ≥ 10 µM
B5 | 9.98 µM
B6 | ≥ 10 µM
B7 | 8.27 µM
B8 | ≥ 10 µM
B9 | ≥ 10 µM
B10 | ≥ 10 µM
B11 | ≥ 10 µM
B12 | ≥ 10 µM
B13 | ≥ 10 µM

Target: T2, full-length beta-Catenin (Uniprot ID …)
Assay: AlphaScreen competition; full-length beta-catenin, biotin-TCF4(10-53) probe
Method: as §1

Binder | EC50
B14 | ≥ 10 µM
B15 | ≥ 10 µM
B16 | 8.9 µM
B17 | ≥ 10 µM
B18 | 8.12 µM
B19 | ≥ 10 µM
